The values below come from the RNAGym collection of RNA variant scans (doi:10.7554/elife.80360).

The chains are these.
B1: CPEB3 Ribozyme (parent)
chain: GGGGGCCACAGCAGAAGCGUUCACGUCGCGGCCCCUGUCAGAUUCUGGUGAAUCUGCGAAUUCUGCUGU

This data set covers variants of B1. The data set can be described thus: self-cleavage, relative activity (ratio to wild type); higher = more cleavage; co-transcriptional.
With A8C G28C, the self-cleavage came to 0.122. With A8C G28U the figure was 0.154; with A8C C22U, 0.22. As for A8C C22A, the figure is 0.163; as for A8C C22G, 0.19. With A8G C45U the figure was 0.8. For A8G C45A, the self-cleavage was 0.8. As for A8G C54U, the figure is 0.805; as for A8G C54G, 0.343. Consider A8G C54A, for which the self-cleavage was found to be 0.331. As for A8C U49G, the figure is 1.01. Regarding A8C U49A, the self-cleavage was found to be 1.06.

In the case of A8C U49C, the self-cleavage came out at 1. As for A8U G28C, the figure is 0.101; as for A8G U44C, 0.55; as for A8U A59C, 0.601. As for A8U A59U, the figure is 0.799; as for A8G A59G, 0.897. As for A8G A59C, the figure is 0.162; as for A8G A59U, 0.401; as for A8C A60G, 0.953. Consider A8C A60C, for which the self-cleavage was 0.382. As for A8C A60U, the figure is 0.413.

For A8G C22G, the self-cleavage came out at 0.0752. On to A8G C22A, for which the self-cleavage came out at 0.136. As for A8G C22U, the figure is 0.074.

For the variant A8U U21G, the self-cleavage came to 0.588. With A8U U21C the figure was 0.846; with A8U C22G, 0.133. As for A8U C22U, the figure is 0.203.

On to A8U A10U, for which the self-cleavage came out at 0.998. With A8G C24G the figure was 0.15; with A8G C24A, 0.446; with A8G C24U, 0.174. As for A8C C34A, the figure is 0.834; as for A8C C34G, 0.859; as for A8C C34U, 0.972. With A8G G30U the figure was 0.335; with A8G G30C, 0.602; with A8G G30A, 0.861. With A8C G65U, the self-cleavage stood at 0.676. With A8C G65A the figure was 0.928; with A8G U64C, 0.361. As for A8G U64A, the figure is 0.242. As for A8C C33G, the figure is 0.527; as for A8C C33A, 0.897; as for A8G G58C, 0.843. As to A8G U26C, the self-cleavage was determined as 0.325. With A8G U26A the figure was 0.644; with A8G U26G, 0.622. With A8G U43G the figure was 0.398; with A8G U43A, 0.401. As for A8G C66G, the figure is 0.294; as for A8G C66A, 0.249; as for A8G C66U, 0.5. For the variant A8G G65A, the self-cleavage amounted to 0.224. As for A8U G31C, the figure is 0.247; as for A8U G31A, 0.925. Consider A8U G31U, for which the self-cleavage is 0.806.

Regarding A8U C29G, the self-cleavage is 0.183. As for A8U C29U, the figure is 0.84; as for A8G C33A, 0.73.

A8G C33U: the self-cleavage worked out at 0.833.

Turning to A8C A52G, the self-cleavage was found to be 0.974. With A8G G25A, the self-cleavage stood at 0.113.

Take A8G G25U: the self-cleavage was found to be 0.1. As for A8G G25C, the self-cleavage was found to be 0.0474.

Turning to A8C G11U, the self-cleavage amounted to 0.768.

Consider A8C G11C, for which the self-cleavage worked out at 0.779. With A8C G11A, the self-cleavage stood at 0.923. As for A8U A42U, the figure is 0.995. A8U A42C: the self-cleavage is 0.972. As for A8U C27U, the figure is 0.294; as for A8U C27A, 0.615. As for A8U C27G, the figure is 0.163; as for A8C U69G, 1.04; as for A8C U69A, 1.01. On to A8C U67A, for which the self-cleavage is 1.04. As for A8G C34G, the figure is 0.665; as for A8C U21C, 0.854.

Regarding A8G G19C, the self-cleavage was found to be 0.161. As for A8G G19U, the figure is 0.0891; as for A8U G25C, 0.0896; as for A8U G25A, 0.179. With A8G the figure was 0.929.

A8U: the self-cleavage was determined as 1.01. With A8U G19A the figure was 0.198; with A8C U38C, 0.9; with A8U A13G, 1.02. Regarding A8U A13C, the self-cleavage came to 0.855. With A8G U20G the figure was 0.0536.

In the case of A8G U20C, the self-cleavage was found to be 0.09. Consider A8G C27A, for which the self-cleavage came out at 0.0861. As for A8G C27U, the figure is 0.0734; as for A8C U36C, 0.819; as for A8C U36A, 0.205. Regarding A8C U36G, the self-cleavage was 0.192. As for A8C C66U, the figure is 1.02; as for A8C C66G, 0.871. With A8U G11U the figure was 0.902; with A8U G11A, 0.906; with A8U C39A, 0.864. For A8U C39G, the self-cleavage was 0.988.

For the variant A8C C63A, the self-cleavage worked out at 0.76. With A8C C63U the figure was 0.972; with A8U A60G, 0.939. As for A8U A60U, the figure is 0.457; as for A8U A60C, 0.432.

Consider A8U G30C, for which the self-cleavage amounted to 0.849. With A8U G30A the figure was 0.963; with A8C G41A, 0.89. Turning to A8C G41U, the self-cleavage turned out to be 0.78.

Regarding A8C G37A, the self-cleavage turned out to be 0.207.

Regarding A8C G37U, the self-cleavage stood at 0.257. As for A8G C9G, the figure is 0.915; as for A8G C9U, 0.954. As for A8C G19A, the figure is 0.189; as for A8G G47U, 0.92; as for A8G G47C, 0.945. With A8C G17U the figure was 0.444; with A8C G17C, 0.165. Regarding A8C G17A, the self-cleavage was determined as 0.269.

Turning to A8C C9A, the self-cleavage was determined as 1.01. With A8C C9U the figure was 1.01.

Regarding A8C C9G, the self-cleavage turned out to be 0.922. As for A8G U55G, the figure is 0.134. Turning to A8G U55C, the self-cleavage was 0.282.

For A8U A40C, the self-cleavage was 0.639. With A8U A40U the figure was 0.781.

In the case of A8G G17A, the self-cleavage amounted to 0.0671. With A8G G17C the figure was 0.0831; with A8G G17U, 0.103. With A8U G68U the figure was 1.03. Consider A8U G68A, for which the self-cleavage came to 0.991. Regarding A8U G68C, the self-cleavage worked out at 1.02. As for A8G U61C, the figure is 0.142; as for A8G U61G, 0.284; as for A8U G14A, 0.827. With A8U G14U the figure was 0.785.

Turning to A8G G31A, the self-cleavage turned out to be 0.865. With A8G G31U the figure was 0.649. With A8C G48U the figure was 1.02; with A8C G48C, 1.02; with A8U A15G, 0.998.

Regarding A8U A15U, the self-cleavage was 0.882. As for A8U C57G, the figure is 0.272. As for A8G A42C, the figure is 0.59; as for A8G A42U, 0.622. As for A8G A42G, the figure is 0.536. For the variant A8G U62A, the self-cleavage is 0.394. As for A8G U62C, the figure is 0.253; as for A8U G50A, 1.03. With A8U G50C the figure was 1.

In the case of A8G U21C, the self-cleavage was determined as 0.584. In the case of A8G C18G, the self-cleavage was 0.0214. With A8G C18A the figure was 0.12; with A8G C18U, 0.207; with A8U G58U, 1.03. With A8U G58C the figure was 0.988. As for A8G C39A, the figure is 0.242; as for A8G C39G, 0.537; as for A8U G65C, 0.644. As to A8U G65U, the self-cleavage was 0.768. Take A8C G56C: the self-cleavage was 0.83.

As to A8C G56A, the self-cleavage was found to be 0.999. As for A8G A52C, the figure is 0.768; as for A8G A52U, 0.803.
